“And” between values parts separate entries of the source, which are not always exact repeats. Equal values may be shown once. Read-outs that look alike come from different tables or passages of the source.
Tests used:
[1] = target: human PDL1 on cells (antigen-presenting cells and T cells of SEA stimulated human PBMC) (human, UniProt Q9NZQ7 19-290); experiment: cell-based or functional assay
[2] = target: cynomolgus PDL1-Fc chimeric protein (cynomolgus, UniProt G7PSE7 19-238); experiment: SPR T200, antigen-Fc captured, molecule as analyte
cynomolgus PDL1-Fc chimeric protein, sequence (G7PSE7 entry or part of it mutant): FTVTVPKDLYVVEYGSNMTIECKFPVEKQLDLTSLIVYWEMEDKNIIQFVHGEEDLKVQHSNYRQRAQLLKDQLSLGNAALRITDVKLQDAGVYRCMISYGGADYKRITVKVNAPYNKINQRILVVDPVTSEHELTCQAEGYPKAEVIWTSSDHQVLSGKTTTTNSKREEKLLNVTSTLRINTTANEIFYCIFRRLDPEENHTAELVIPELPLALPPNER
Summary of the method: (§1)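 Apparent KD, ka and kd come from a one-to-one Langmuir model. Species Fc proteins were captured on an immobilized anti-Fc surface, and analyte at 0.12-90 nM (three-fold series) was flowed 3 min with 10-min dissociation; surfaces were stripped with 3 M MgCl₂.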

[3] = target: human PDL1-Fc chimeric protein (human, UniProt Q9NZQ7 19-238, limits assumed); experiment: SPR T200, antigen-Fc captured, molecule as analyte
Summary of the method: as §1

[4] = target: T1, human CD137 expressed on Jurkat cells (human, UniProt Q07011 24-255); experiment: cell-based or functional assay
T1 sequence (Q07011 24-255 limits assumed): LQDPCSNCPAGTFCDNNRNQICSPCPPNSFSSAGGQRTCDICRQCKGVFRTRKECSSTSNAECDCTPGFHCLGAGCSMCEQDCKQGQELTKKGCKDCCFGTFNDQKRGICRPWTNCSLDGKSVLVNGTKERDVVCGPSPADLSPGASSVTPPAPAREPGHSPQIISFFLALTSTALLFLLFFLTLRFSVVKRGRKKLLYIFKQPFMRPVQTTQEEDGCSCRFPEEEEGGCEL

[5] = target: T1, human CD137 expressed on Jurkat cells; experiment: cell-based or functional assay; remark: listed apart in the source
[6] = target: T1, human CD137 expressed on Jurkat cells; experiment: cell-based or functional assay; remark: listed apart in the source
[7] = target: T1, human CD137 expressed on Jurkat cells; experiment: cell-based or functional assay; remark: listed apart in the source
[8] = target: T1, human CD137 expressed on Jurkat cells; experiment: cell-based or functional assay; remark: listed apart in the source
[9] = target: T1, human CD137 expressed on Jurkat cells; experiment: cell-based or functional assay; remark: listed apart in the source
[10] = target: T1, human CD137 expressed on Jurkat cells; experiment: cell-based or functional assay; remark: listed apart in the source

Binder | EC50 of IL-2 secretion, SEA stimulated PBMC, 96 h [1] | Kd [2] | koff [2] | kon [2] | Kd [3] | koff [3] | kon [3] | EC50 NFkB-luciferase, HCC827 with IFNy stimulation [4] | EC50 NFkB-luciferase, HCC827 without IFNy stimulation [4] | EC50 NFkB-luciferase, HCC827 with IFNy [5] | EC50 NFkB-luciferase, CHO-PDL1 cells [6] | EC50 NFkB-luciferase, CHO-PDL1 cells, 24 h [7] | EC50 NFkB-luciferase, CHO-PDL1 cells, 24 h, + HBA (so in the source) [7] | Top of curve fit, NFkB-luciferase, CHO-PDL1 cells, 24 h, + HBA (so in the source) [7] | EC50 NFkB-luciferase, CHO-PDL1 cells [8] | EC50 NFkB-luciferase, CHO-PDL1 cells, 6 h [9] | EC50 NFkB-luciferase, CHO-PDL1 cells, 6 h, + HSA [9] | Top of curve fit, NFkB-luciferase, CHO-PDL1 cells, 6 h, + HSA [9] | EC50 NFkB-luciferase, HCC827 without IFNy [10]
PRO997 (37-20-B03 CDR, scFv) (scFv, also called anti-PDL1 scFv PRO997) scFv: DIQMTQSPSSLSASVGDRVTITCQASQSIGTYLAWYQQKPGKAPKLLIYRAFILASGVPSRFSGSGSGTDFTLTISSLQPEDFATYYCQSNFYSDSTTIGPNAFGTGTKVTVLGGGGGSGGGGSGGGGSGGGGSQVQLQESGPGLVKPSETLSLTCKVSGFSFNSDYWIYWIRQPPGKGLEWIGSIYGGSSGNTQYASWAQGRVTISVDSSKNQFSLKLSSVTAADTAVYYCARGYVDYGGATDLWGQGTLVTVSS | 40.9 ng/mL | < 1.67 pM | < 1e-05 s⁻¹ | 6e+06 M⁻¹ s⁻¹ | ≤ 1.7 pM | < 1e-05 s⁻¹ | 5.9e+06 M⁻¹ s⁻¹ | – | – | – | – | – | – | – | – | – | – | – | –
urelumab (antibody, V domains shown) VH: QVQLQQWGAGLLKPSETLSLTCAVYGGSFSGYYWSWIRQSPEKGLEWIGEINHGGYVTYNPSLESRVTISVDTSKNQFSLKLSSVTAADTAVYYCARDYGPGNYDWYFDLWGRGTLVTVSS VL: EIVLTQSPATLSLSPGERATLSCRASQSVSSYLAWYQQKPGQAPRLLIYDASNRATGIPARFSGSGSGTDFTLTISSLEPEDFAVYYCQQRSNWPPALTFGGGTKVEIK | – | – | – | – | – | – | – | 52.8 ng/mL | 47.5 ng/mL | 114 ng/mL and 145 ng/mL and 108 ng/mL | 79.1 ng/mL | 46.6 ng/mL | 78.2 ng/mL | 90.5 | 86.5 ng/mL and 79.5 ng/mL and 104 ng/mL | 56.5 ng/mL | 77.7 ng/mL | 106 | 212 ng/mL and 110 ng/mL and 112 ng/mL

From patent US20200332015A1 (NAMAB THERAPEUTICS, published 2020)
